Literature values, collected in article PMC7080216.

Assays:
[1] = biological target: matriptase (Homo sapiens) (UniProt Q9Y5Y6)
[2] = biological target: cathepsin G (Homo sapiens) (UniProt P08311)
Sequence of UniProt P08311 (P08311 21-243): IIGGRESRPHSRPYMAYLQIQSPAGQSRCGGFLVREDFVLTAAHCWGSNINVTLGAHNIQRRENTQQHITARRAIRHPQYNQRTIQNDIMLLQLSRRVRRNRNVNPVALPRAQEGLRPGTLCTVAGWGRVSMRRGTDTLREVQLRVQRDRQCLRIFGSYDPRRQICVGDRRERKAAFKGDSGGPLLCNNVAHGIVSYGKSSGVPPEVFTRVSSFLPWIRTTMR

Sequence of UniProt Q9Y5Y6 (Q9Y5Y6 whole entry): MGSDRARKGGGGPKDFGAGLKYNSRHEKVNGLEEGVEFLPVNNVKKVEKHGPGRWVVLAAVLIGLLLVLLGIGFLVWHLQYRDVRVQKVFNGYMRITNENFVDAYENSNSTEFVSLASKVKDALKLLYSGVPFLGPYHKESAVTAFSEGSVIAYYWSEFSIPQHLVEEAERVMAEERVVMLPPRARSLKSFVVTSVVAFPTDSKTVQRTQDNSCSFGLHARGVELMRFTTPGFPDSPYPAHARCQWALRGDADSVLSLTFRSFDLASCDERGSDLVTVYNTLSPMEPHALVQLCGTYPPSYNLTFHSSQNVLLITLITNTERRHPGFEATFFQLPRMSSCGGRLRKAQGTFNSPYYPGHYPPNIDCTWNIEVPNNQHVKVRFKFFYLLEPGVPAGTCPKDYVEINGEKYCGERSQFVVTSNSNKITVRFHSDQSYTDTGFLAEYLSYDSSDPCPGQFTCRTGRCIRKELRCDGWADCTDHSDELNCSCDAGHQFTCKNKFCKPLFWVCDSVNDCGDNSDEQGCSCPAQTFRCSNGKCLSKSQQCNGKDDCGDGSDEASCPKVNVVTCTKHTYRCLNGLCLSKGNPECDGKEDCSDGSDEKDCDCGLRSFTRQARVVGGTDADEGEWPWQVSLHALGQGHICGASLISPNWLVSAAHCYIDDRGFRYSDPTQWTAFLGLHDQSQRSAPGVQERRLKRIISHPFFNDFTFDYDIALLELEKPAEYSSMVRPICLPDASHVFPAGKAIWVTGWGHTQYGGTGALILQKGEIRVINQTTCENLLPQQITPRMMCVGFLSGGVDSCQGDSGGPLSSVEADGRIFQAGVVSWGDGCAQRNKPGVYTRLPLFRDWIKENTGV

SFTI-1 (from UniProt Q4GWU5)
Ki [1]: 1 nM | Ki [2]: 570 nM
